degradation_or_half_life, localisation_or_trafficking and expression_or_secretion data for three substances are collected here from publication PMC11214941.

Data set [1] in a line: CHX chase immunoblot, protein remaining. The note with it: glycan lost; control: untreated.
The nature of data set [2]: IF of GFP-EREG in HEK293, membrane localisation. As to conditions: glycan lost; control: GFP-EREG-WT, untreated.
The nature of data set [3]: ELISA of EREG in HEK293 conditioned medium. As to conditions: glycan lost; control: EREG-WT.

With Epiregulin (EREG): tunicamycin, the degradation_or_half_life result in data set [1] is “decreases”. Moreover, the localisation_or_trafficking entry in data set [2] was “decreases”.
Take Epiregulin (EREG): NGI-1: the degradation_or_half_life result in data set [1] is on record as “decreases”. The localisation_or_trafficking result in data set [2] is on record as “decreases”.
As for Epiregulin (EREG): N47Q, the expression_or_secretion result in data set [3] was “decreases”. Also, in data set [2], the localisation_or_trafficking entry is listed as “decreases”.
